Data published in patent US20110190477A1 (G2 INFLAMMATION, published 2011).
Positions count from the first letter of the chain named. “And” between values parts separate entries of the source, which are not always exact repeats. Equal values may be shown once.

B1: humanized anti-C5aR antibody hAb-C (antibody, human IgG4, kappa)
light: DVVMTQSPLSLPVTLGQPASISCRSSQSLVHSNGNTYLHWFQQRPGQSPRLLIYKVSNRFSGVPDRFSGSGSGTDFTLKISRVEAEDVGVYYCSQSTLVPLTFGGGTKLEIKTVAAPSVFIFPPSDEQLKSGTASVVCLLNNFYPREAKVQWKVDNALQSGNSQESVTEQDSKDSTYSLSSTLTLSKADYEKHKVYACEVTHQGLSSPVTKSFNRGEC
heavy: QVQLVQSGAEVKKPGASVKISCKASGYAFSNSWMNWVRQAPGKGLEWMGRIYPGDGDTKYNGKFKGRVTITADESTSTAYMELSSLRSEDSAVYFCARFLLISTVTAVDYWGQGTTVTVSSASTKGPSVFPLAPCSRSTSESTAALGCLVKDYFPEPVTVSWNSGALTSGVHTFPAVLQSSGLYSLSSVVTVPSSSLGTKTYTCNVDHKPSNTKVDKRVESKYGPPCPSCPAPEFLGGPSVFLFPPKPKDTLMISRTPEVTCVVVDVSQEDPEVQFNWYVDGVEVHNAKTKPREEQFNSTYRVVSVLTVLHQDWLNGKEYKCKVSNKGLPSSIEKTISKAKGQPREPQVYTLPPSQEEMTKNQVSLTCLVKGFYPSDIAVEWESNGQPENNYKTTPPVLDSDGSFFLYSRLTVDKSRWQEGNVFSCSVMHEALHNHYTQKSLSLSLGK
notes: also called antibody C
B2: humanized anti-C5aR antibody hAb-F (antibody, human IgG4 S228P, kappa)
light: B1 light
heavy: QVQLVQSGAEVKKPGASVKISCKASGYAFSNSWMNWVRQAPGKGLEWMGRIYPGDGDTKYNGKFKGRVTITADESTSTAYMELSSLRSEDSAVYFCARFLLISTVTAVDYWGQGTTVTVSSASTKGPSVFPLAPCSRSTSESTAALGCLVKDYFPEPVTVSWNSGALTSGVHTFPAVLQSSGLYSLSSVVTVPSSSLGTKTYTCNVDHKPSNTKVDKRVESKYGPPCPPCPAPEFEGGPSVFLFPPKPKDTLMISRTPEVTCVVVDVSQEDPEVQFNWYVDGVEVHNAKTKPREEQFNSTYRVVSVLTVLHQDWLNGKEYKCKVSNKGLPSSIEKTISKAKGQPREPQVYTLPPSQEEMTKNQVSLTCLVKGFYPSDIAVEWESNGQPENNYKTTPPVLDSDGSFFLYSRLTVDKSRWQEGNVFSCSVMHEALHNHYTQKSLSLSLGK
notes: also called antibody F
B3: humanized anti-C5aR antibody hAb-M (antibody, human IgG4, kappa)
light: B1 light with Q17E, F41Y, Q42L, R44K, R50Q, Y92F, G105Q
heavy: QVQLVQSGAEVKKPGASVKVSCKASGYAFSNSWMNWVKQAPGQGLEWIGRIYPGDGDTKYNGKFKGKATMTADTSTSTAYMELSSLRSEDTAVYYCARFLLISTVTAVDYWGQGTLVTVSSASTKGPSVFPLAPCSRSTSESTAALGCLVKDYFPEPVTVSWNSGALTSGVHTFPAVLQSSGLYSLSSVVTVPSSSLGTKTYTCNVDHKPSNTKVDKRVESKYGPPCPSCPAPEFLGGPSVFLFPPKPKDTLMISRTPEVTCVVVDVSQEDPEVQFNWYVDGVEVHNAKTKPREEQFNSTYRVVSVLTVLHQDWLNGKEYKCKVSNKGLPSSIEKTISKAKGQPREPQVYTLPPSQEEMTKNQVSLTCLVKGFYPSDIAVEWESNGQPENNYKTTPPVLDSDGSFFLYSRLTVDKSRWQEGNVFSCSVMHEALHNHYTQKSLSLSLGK
notes: also called antibody M
B4: humanized anti-C5aR antibody hAb-S (antibody, human IgG4 S228P, kappa)
light: DVVMTQSPLSLPVTLGEPASISCRSSQSLVHSNGNTYLHWYLQKPGQSPQLLIYKVSNRFSGVPDRFSGSGSGTDFTLKISRVEAEDVGVYFCSQSTLVPLTFGQGTKLEIKRTVAAPSVFIFPPSDEQLKSGTASVVCLLNNFYPREAKVQWKVDNALQSGNSQESVTEQDSKDSTYSLSSTLTLSKADYEKHKVYACEVTHQGLSSPVTKSFNRGEC
heavy: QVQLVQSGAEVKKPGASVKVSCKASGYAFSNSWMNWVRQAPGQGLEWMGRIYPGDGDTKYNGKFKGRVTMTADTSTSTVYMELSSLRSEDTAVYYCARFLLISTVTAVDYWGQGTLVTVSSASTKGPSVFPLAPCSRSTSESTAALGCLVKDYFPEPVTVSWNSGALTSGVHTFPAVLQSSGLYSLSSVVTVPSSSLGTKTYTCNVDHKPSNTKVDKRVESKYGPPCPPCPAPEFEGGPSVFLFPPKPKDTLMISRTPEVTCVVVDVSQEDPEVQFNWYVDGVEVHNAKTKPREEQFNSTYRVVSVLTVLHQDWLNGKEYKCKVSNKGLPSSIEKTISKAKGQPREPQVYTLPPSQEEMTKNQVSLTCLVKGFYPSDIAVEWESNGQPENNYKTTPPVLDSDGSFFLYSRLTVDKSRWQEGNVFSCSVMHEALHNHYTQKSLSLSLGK
notes: also called antibody S
B5: humanized anti-C5aR antibody hAb-G (antibody, human IgG4 S228P, kappa)
light: B1 light with Q17E, F41Y, Q42L, R44K, R50Q, Y92F, G105Q
heavy: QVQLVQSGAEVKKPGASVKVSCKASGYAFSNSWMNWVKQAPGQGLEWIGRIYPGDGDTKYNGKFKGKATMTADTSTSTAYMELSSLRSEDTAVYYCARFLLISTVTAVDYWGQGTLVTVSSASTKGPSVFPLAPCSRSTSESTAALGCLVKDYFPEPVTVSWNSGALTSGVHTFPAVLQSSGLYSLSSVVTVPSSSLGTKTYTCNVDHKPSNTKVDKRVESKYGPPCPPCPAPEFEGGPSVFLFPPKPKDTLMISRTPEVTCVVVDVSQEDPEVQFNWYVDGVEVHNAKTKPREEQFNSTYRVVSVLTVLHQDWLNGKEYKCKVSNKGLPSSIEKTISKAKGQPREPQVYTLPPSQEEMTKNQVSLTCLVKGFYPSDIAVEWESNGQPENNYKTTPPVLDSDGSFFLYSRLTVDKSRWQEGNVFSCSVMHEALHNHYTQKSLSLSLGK
notes: also called antibody G
B6: humanized anti-C5aR antibody hAb-N (antibody, human IgG1, kappa)
light: B1 light with Q17E, F41Y, Q42L, R44K, R50Q, Y92F, G105Q
heavy: not shown
notes: IgG1; also called antibody N
B7: humanized anti-C5aR antibody hAb-O (antibody, human IgG1, kappa)
light: B1 light
heavy: not shown
notes: IgG1; also called antibody O
B8: human C5a (ligand, UniProt P01031 678-751, looked up)
chain: TLQKKIEEIAAKYKHSVVKKCCYDGACVNNDETCEQRAARISLGPRCIKAFTECCVVASQLRANISHKDMQLGR
modifications: tracer form: 125I-Bolton-Hunter label
notes: C5a is a fragment of it; also called hC5a; recombinant human C5a
B9: humanized anti-C5aR antibody hAb-A (antibody, human IgG4, kappa, V domains shown)
VH: QVQLVQSGAEVKKPGASVKISCKASGYAFSNSWMNWVRQAPGKGLEWMGRIYPGDGDTKYNGKFKGRVTITADESTSTAYMELSSLRSEDSAVYFCARFLLISTVTAVDYWGQGTTVTVSS
VL: DVVMTQSPLSLPVTLGEPASISCRSSQSLVHSNGNTYLHWYLQKPGQSPQLLIYKVSNRFSGVPDRFSGSGSGTDFTLKISRVEAEDVGVYFCSQSTLVPLTFGQGTKLEIKT
notes: also called antibody A
B10: humanized anti-C5aR antibody hAb-K (antibody, human IgG4 S228P, kappa, V domains shown)
VH: B9 VH with I20V, K43Q, I70M, E74T, A79V, S91T, F95Y, T116L
VL: B9 VL with S7T, E17Q, Y41C, F92Y

Molecular target: T1, human C5a receptor (human, UniProt P21730 1-350)
T1 construct: On human neutrophils, L1.2/hC5aR transfectants or neutrophils of hC5aR knock-in mice; also called hC5aR; C5aR1
T1 chain: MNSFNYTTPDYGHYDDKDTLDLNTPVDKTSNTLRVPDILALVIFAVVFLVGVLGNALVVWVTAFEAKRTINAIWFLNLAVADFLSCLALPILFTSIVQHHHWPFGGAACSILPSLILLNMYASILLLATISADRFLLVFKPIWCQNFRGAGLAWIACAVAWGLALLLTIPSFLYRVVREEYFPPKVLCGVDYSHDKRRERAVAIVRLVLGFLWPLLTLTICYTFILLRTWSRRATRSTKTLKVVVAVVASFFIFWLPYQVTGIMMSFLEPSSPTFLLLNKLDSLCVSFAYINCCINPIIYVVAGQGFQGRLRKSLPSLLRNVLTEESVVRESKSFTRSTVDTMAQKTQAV
Test: 125I-C5a displacement, human neutrophils
Protocol: (§1) The ability of humanized Abs to inhibit ¹²⁵I-labelled C5a binding to L1.2 cells transfected with hC5aR gene or human neutrophils was tested as described below. Recombinant human C5a was obtained from Sigma Chemical Co. (St. Louis, Mo.). ¹²⁵I-Bolton-Hunter-labelled complement C5a was purchased from NEN-Dupont (Boston, Mass.), with a specific activity of 2200 Ci/mM. Briefly, L1.2/hC5aR stable transfectants were grown for several days prior to an experiment then treated overnight with 5 mM butyric acid to stimulate hC5aR expression prior to the binding assay. Human neutrophils were purified from venous blood collected from healthy volunteers. Neutrophils were separated from other leukocytes by percoll density centrifugation followed by a red blood cell lysis step. Both cell types were washed once in PBS and resuspended in binding buffer (50 mM Hepes, pH 7.5, 1 mM CaCl₂, 5 mM MgCl₂, 0.5% BSA) at a concentration of 1×10⁷/ml. Aliquots of 40 μl (4×10⁵ cells) were dispensed into 96 well microtitre plates, followed by the addition of cold competitor (antibody or human C5a). Cells and cold competitor were incubated for 15 min at room temperature before-radiolabelled C5a was added to a final concentration of 0.4 nM. The final reaction volume was 120 μl. After 60 min incubation at room temperature, the cells were washed three times with 150 μl of binding buffer containing 0.15 M NaCl. Cell pellets were then counted on a TopCount Scintillation Counter (Packard). Samples were assayed in triplicate at each of 6-8 concentrations. Each antibody was tested in at least 3 separate assays. The number of counts in each sample was expressed as a percentage of the maximum ¹²⁵I-C5a binding observed in wells with no added cold competitor after subtraction of background.
(§2) Results of this analysis (the displacement curves) for each of the humanized antibodies compared to the mouse antibody 7F3 in human neutrophils and L1.2/hC5aR transfectants are given in FIGS. 11 and 12 respectively. […] These values were obtained using Graphpad Prism software fitting the data to the non-linear equation for one site competition.

B1 and B2 are within 1.5-fold of each other in EC50: 2.48 nM for the first, 2.55 nM for the second.

Compared with B3, B4 is 1.5-fold lower in EC50: 4.05 nM for the first, 2.69 nM for the second. The second is the more potent here.

First: B5
Second: B6
The EC50 of the first is 5.4-fold higher: 3.52 nM for the first, 0.65 nM for the second. The second is the more potent here.

For B7, the EC50 was 0.48 nM.

Molecular target: T1, human C5a receptor
Test: 125I-C5a displacement by cold C5a, human neutrophils

In the case of B8, the EC50 is reported as 0.5 nM.

Molecular target: T1, human C5a receptor
Test: 125I-C5a displacement, L1.2/hC5aR transfectants
Protocol: as §1, §2

Compared with B9, B1 is 3.1-fold lower in EC50: 2.78 nM for the first, 0.9 nM for the second.

B2 and B3 are within 1.5-fold of each other in EC50: 1.26 nM for the first, 0.95 nM for the second.

B5 and B6 are within 1.5-fold of each other in EC50: 1.53 nM for the first, 1.03 nM for the second.

With B7 the EC50 was 0.68 nM.

Molecular target: T1, human C5a receptor
Test: cell-based or functional assay

Compared with B1, B5 is higher in “blocking of human neutrophil migration towards C5a at 5 µg/ml antibody” value: 75% for the first, 84% for the second.

With B10 the “blocking of human neutrophil migration towards C5a at 5 µg/ml antibody” value was 55%.

Molecular target: T1, human C5a receptor
Test: cell-based or functional assay
Remark: another data set of the same source

Going from B2 to B6, the “Ab conc. tested but not effective at blocking Ca2+-flux (human neutrophils, 1 nM C5a)” value falls from 10 µg/mL to 0.01 µg/mL (1000-fold).

B3 and B5 are the same in “Ab conc. effective at blocking C5a-induced Ca2+-flux (human neutrophils, 1 nM C5a)” value: 30 µg/mL for the first, 30 µg/mL for the second.

In the case of B7, the “Ab conc. effective at blocking C5a-induced Ca2+-flux (human neutrophils, 1 nM C5a)” value is reported as 10 µg/mL.

Molecular target: T1, human C5a receptor
Test: saturation binding to human neutrophils at 4 C, flow cytometry
Protocol: Human neutrophils, isolated as described above, were resuspended in dPBS and 1×10⁵ cells (in 25 μl) were dispensed into wells of a 96-well plate. An equal volume (25 μl) of 2× antibody (diluted in PBS) was added to each well. The final antibody concentration using 2-fold serial dilution ranged from 40 to 0 ug/ml (using unlabelled hAb-Q, hAb-J and 7F3). Cells and antibody were incubated for 20 min times at 4° C. After incubation, 100 μl PBS+1% BCS was added to each well and the plate centrifuged at 2,000 rpm for 3 min. […] The cells were washed once as above and resuspended in PBS+1% FCS for analysis by flow cytometry. FSC v SSC scatter was used to identify neutrophils, with the Median Fluorescence Intensity (MFI) determined for each sample. EC50 values were determined by fitting data (MFI—background vs log₁₀[antibody concentration]) to the sigmoidal dose-response (variable slope) i.e. 4-parameter logistic equation using GraphPad Prism (v4.0) software. Bₘₐₓ and KD were determined by fitting data to the one-site binding hyperbola equation.

For B6, the EC50 was 20 nM to 25 nM (2×) and ~3 µg/mL.

In the case of B6, the Kd is reported as 20 nM to 25 nM (2×) and ~3 µg/mL.
